B1: scFv; the commonest letter at each place (parent)
chain 1: EVKLDETGGGLVQPGRPMKLSCVASGFTFSDYWMNWVRQSPEKGLEWVAQIRNKPYNYETYYSDSVKGRFTISRDDSKSSVYLQMNNLRVEDMGIYYCTGSYYGMDYWGQGTSVTVS
chain 2: DVVMTQTPLSLPVSLGDQASISCRSSQSLVHSNGNTYLRWYLQKPGQSPKVLIYKVSNRFSGVPDRFSGSGSGTDFTLKISRVEAEDLGVYFCSQSTHVPWTFGGGTKLEIK

What was measured:
fluorescein = variants of: B1; assay: Kd (Tite-Seq); details: with fluorescein; format: scFv 4-4-20, heavy + light
[1] = variants of: B1; assay: yeast surface expression (ratio to wild type); higher = more expressed; details: format: scFv 4-4-20, heavy + light

chain 1 F29W
Kd (fluorescein): 0.0562 µM | yeast surface expression [1]: 0.661

chain 1 F29D W33Y
Kd (fluorescein): ≥ 10 µM | yeast surface expression [1]: 0.766

chain 1 T28I
Kd (fluorescein): 0.000504 µM | yeast surface expression [1]: 1.07

chain 1 T28L
Kd (fluorescein): 0.00166 µM | yeast surface expression [1]: 0.955

chain 1 T28W
Kd (fluorescein): 0.0038 µM | yeast surface expression [1]: 0.893

chain 1 T28N
Kd (fluorescein): 0.00121 µM | yeast surface expression [1]: 0.895

chain 1 N35P
Kd (fluorescein): ≥ 10 µM | yeast surface expression [1]: 0.672

chain 1 Y102N G104Q
Kd (fluorescein): ≥ 10 µM | yeast surface expression [1]: 0.924

chain 1 Y102M G104M
Kd (fluorescein): ≥ 10 µM | yeast surface expression [1]: 0.472

chain 1 S101I Y102T
Kd (fluorescein): ≥ 10 µM | yeast surface expression [1]: 0.614

chain 1 M34K W36M
Kd (fluorescein): ≥ 10 µM | yeast surface expression [1]: 0.273

chain 1 T28Q F29Q V37S
Kd (fluorescein): 0.0624 µM | yeast surface expression [1]: 0.421

chain 1 N35H V37Y
Kd (fluorescein): ≥ 10 µM | yeast surface expression [1]: 0.779

chain 1 Y102C G109R
Kd (fluorescein): ≥ 10 µM | yeast surface expression [1]: 0.304

chain 1 S101R W108Q
Kd (fluorescein): ≥ 10 µM | yeast surface expression [1]: 0.346

chain 1 S101M W108G
Kd (fluorescein): ≥ 10 µM | yeast surface expression [1]: 0.228

chain 1 W36K V37H
Kd (fluorescein): ≥ 10 µM | yeast surface expression [1]: 0.773

chain 1 Y32P N35K
Kd (fluorescein): 0.195 µM | yeast surface expression [1]: 0.466

chain 1 Y102E W108I
Kd (fluorescein): 0.000846 µM | yeast surface expression [1]: 0.763

chain 1 D31N V37H
Kd (fluorescein): 0.47 µM | yeast surface expression [1]: 0.626

chain 1 S30I W36P V37E
Kd (fluorescein): ≥ 10 µM | yeast surface expression [1]: 0.93

chain 1 S101M D106G
Kd (fluorescein): ≥ 10 µM | yeast surface expression [1]: 0.323

chain 1 D106N W108K
Kd (fluorescein): ≥ 10 µM | yeast surface expression [1]: 0.446

chain 1 G104Y M105L
Kd (fluorescein): ≥ 10 µM | yeast surface expression [1]: 0.44

chain 1 Y107E G109E
Kd (fluorescein): ≥ 10 µM | yeast surface expression [1]: 0.288

chain 1 G100H Y107H
Kd (fluorescein): ≥ 10 µM | yeast surface expression [1]: 0.348

chain 1 D31G
Kd (fluorescein): 0.00166 µM | yeast surface expression [1]: 0.887

chain 1 D31S
Kd (fluorescein): 0.00245 µM | yeast surface expression [1]: 0.902

chain 1 F29Q Y32L
Kd (fluorescein): ≥ 10 µM | yeast surface expression [1]: 0.881

chain 1 Y102F G104Y W108D
Kd (fluorescein): ≥ 10 µM | yeast surface expression [1]: 0.204

chain 1 F29D W33C M34D
Kd (fluorescein): ≥ 10 µM | yeast surface expression [1]: 0.403

chain 1 G104L W108C
Kd (fluorescein): ≥ 10 µM | yeast surface expression [1]: 0.296

chain 1 D31P Y32K
Kd (fluorescein): ≥ 10 µM | yeast surface expression [1]: 0.708

chain 1 M34H V37P
Kd (fluorescein): ≥ 10 µM | yeast surface expression [1]: 0.3

chain 1 S101W D106S
Kd (fluorescein): ≥ 10 µM | yeast surface expression [1]: 0.516

chain 1 Y102H G109W
Kd (fluorescein): ≥ 10 µM | yeast surface expression [1]: 0.254

chain 1 G100D D106G G109S
Kd (fluorescein): ≥ 10 µM | yeast surface expression [1]: 0.224

chain 1 T28R D31L W33I
Kd (fluorescein): ≥ 10 µM | yeast surface expression [1]: 0.441

chain 1 Y102L D106E
Kd (fluorescein): 3.04 µM | yeast surface expression [1]: 1.26

chain 1 G100T D106V
Kd (fluorescein): ≥ 10 µM | yeast surface expression [1]: 0.468

chain 1 F29A Y32N
Kd (fluorescein): ≥ 10 µM | yeast surface expression [1]: 0.832

chain 1 F29C W33G
Kd (fluorescein): ≥ 10 µM | yeast surface expression [1]: 0.544

chain 1 F29C W33E
Kd (fluorescein): ≥ 10 µM | yeast surface expression [1]: 0.556

chain 1 G100N Y102Q
Kd (fluorescein): ≥ 10 µM | yeast surface expression [1]: 0.746

chain 1 M105K Y107L G109V
Kd (fluorescein): ≥ 10 µM | yeast surface expression [1]: 0.223

chain 1 S30N W33M
Kd (fluorescein): ≥ 10 µM | yeast surface expression [1]: 0.879

chain 1 S30D W36V
Kd (fluorescein): ≥ 10 µM | yeast surface expression [1]: 0.766

chain 1 T28L V37Q
Kd (fluorescein): 0.0102 µM | yeast surface expression [1]: 0.731

chain 1 S101N W108P
Kd (fluorescein): ≥ 10 µM | yeast surface expression [1]: 0.506

chain 1 G100I S101G D106C
Kd (fluorescein): ≥ 10 µM | yeast surface expression [1]: 0.777

chain 1 Y102M M105F
Kd (fluorescein): ≥ 10 µM | yeast surface expression [1]: 0.995

chain 1 S30V D31V W36E
Kd (fluorescein): ≥ 10 µM | yeast surface expression [1]: 1.33

chain 1 G104A M105T
Kd (fluorescein): ≥ 10 µM | yeast surface expression [1]: 0.685

chain 1 M105G W108N
Kd (fluorescein): ≥ 10 µM | yeast surface expression [1]: 0.415

chain 1 G100H
Kd (fluorescein): ≥ 10 µM | yeast surface expression [1]: 0.432

chain 1 G100Y
Kd (fluorescein): ≥ 10 µM | yeast surface expression [1]: 0.606

chain 1 G100E
Kd (fluorescein): ≥ 10 µM | yeast surface expression [1]: 0.388

chain 1 T28A F29K
Kd (fluorescein): ≥ 10 µM | yeast surface expression [1]: 0.821

chain 1 T28I W36A
Kd (fluorescein): ≥ 10 µM | yeast surface expression [1]: 0.354

chain 1 Y103V M105P
Kd (fluorescein): ≥ 10 µM | yeast surface expression [1]: 0.474

chain 1 M105F D106C
Kd (fluorescein): ≥ 10 µM | yeast surface expression [1]: 1.03

chain 1 F29G S30E
Kd (fluorescein): ≥ 10 µM | yeast surface expression [1]: 1

chain 1 M34V
Kd (fluorescein): 0.00361 µM | yeast surface expression [1]: 0.876

chain 1 S101F G104L
Kd (fluorescein): ≥ 10 µM | yeast surface expression [1]: 0.778

chain 1 Y102F G109H
Kd (fluorescein): ≥ 10 µM | yeast surface expression [1]: 0.186

chain 1 W36F V37Y
Kd (fluorescein): ≥ 10 µM | yeast surface expression [1]: 0.738

chain 1 D31E W33N
Kd (fluorescein): ≥ 10 µM | yeast surface expression [1]: 0.845

chain 1 D31E W33C
Kd (fluorescein): ≥ 10 µM | yeast surface expression [1]: 0.827

chain 1 G100M G104C
Kd (fluorescein): ≥ 10 µM | yeast surface expression [1]: 0.544

chain 1 T28C M34S
Kd (fluorescein): ≥ 10 µM | yeast surface expression [1]: 0.611

chain 1 S30P N35V
Kd (fluorescein): ≥ 10 µM | yeast surface expression [1]: 0.636

chain 1 G100C D106G
Kd (fluorescein): ≥ 10 µM | yeast surface expression [1]: 0.553

chain 1 Y32I M34S
Kd (fluorescein): ≥ 10 µM | yeast surface expression [1]: 0.65

chain 1 S101R D106L
Kd (fluorescein): ≥ 10 µM | yeast surface expression [1]: 0.0991

chain 1 G100N D106I
Kd (fluorescein): ≥ 10 µM | yeast surface expression [1]: 0.203

chain 1 F29N S30Q
Kd (fluorescein): 0.876 µM | yeast surface expression [1]: 1.02

chain 1 M105V Y107H
Kd (fluorescein): ≥ 10 µM | yeast surface expression [1]: 0.957

chain 1 S30Y Y32S W33T
Kd (fluorescein): ≥ 10 µM | yeast surface expression [1]: 0.934

chain 1 G100R Y102I
Kd (fluorescein): ≥ 10 µM | yeast surface expression [1]: 0.483

chain 1 T28Y M34L N35C
Kd (fluorescein): ≥ 10 µM | yeast surface expression [1]: 0.495

chain 1 S101T
Kd (fluorescein): ≥ 10 µM | yeast surface expression [1]: 0.88

chain 1 Y32E N35G
Kd (fluorescein): ≥ 10 µM | yeast surface expression [1]: 1

chain 1 Y32E N35S
Kd (fluorescein): ≥ 10 µM | yeast surface expression [1]: 0.87

chain 1 S30H N35D
Kd (fluorescein): ≥ 10 µM | yeast surface expression [1]: 0.828

chain 1 W33N
Kd (fluorescein): ≥ 10 µM | yeast surface expression [1]: 1.01

chain 1 S30R M34S
Kd (fluorescein): 0.11 µM | yeast surface expression [1]: 0.717

chain 1 Y107A W108A
Kd (fluorescein): ≥ 10 µM | yeast surface expression [1]: 0.351

chain 1 S30D V37P
Kd (fluorescein): ≥ 10 µM | yeast surface expression [1]: 0.55

chain 1 Y103W M105L G109W
Kd (fluorescein): ≥ 10 µM | yeast surface expression [1]: 0.199

chain 1 Y32M W33D V37C
Kd (fluorescein): ≥ 10 µM | yeast surface expression [1]: 0.778

chain 1 M34Q N35S
Kd (fluorescein): ≥ 10 µM | yeast surface expression [1]: 0.621

chain 1 S30P M34F
Kd (fluorescein): 0.00184 µM | yeast surface expression [1]: 1.2

chain 1 M105F W108Y
Kd (fluorescein): 0.0113 µM | yeast surface expression [1]: 0.656

chain 1 M34N W36A
Kd (fluorescein): ≥ 10 µM | yeast surface expression [1]: 0.608

chain 1 M105W Y107P
Kd (fluorescein): ≥ 10 µM | yeast surface expression [1]: 0.452

chain 1 Y102G D106Y
Kd (fluorescein): ≥ 10 µM | yeast surface expression [1]: 0.496

chain 1 S101D G104H D106A
Kd (fluorescein): ≥ 10 µM | yeast surface expression [1]: 0.353

chain 1 G100Y G109P
Kd (fluorescein): ≥ 10 µM | yeast surface expression [1]: 0.22

chain 1 G100Y G109L
Kd (fluorescein): ≥ 10 µM | yeast surface expression [1]: 0.306

chain 1 Y103I M105E
Kd (fluorescein): ≥ 10 µM | yeast surface expression [1]: 0.733

chain 1 T28H W36G
Kd (fluorescein): ≥ 10 µM | yeast surface expression [1]: 2.76

chain 1 G100W G104I
Kd (fluorescein): ≥ 10 µM | yeast surface expression [1]: 0.359

chain 1 W108G G109V
Kd (fluorescein): ≥ 10 µM | yeast surface expression [1]: 0.228

chain 1 F29S N35H
Kd (fluorescein): ≥ 10 µM | yeast surface expression [1]: 0.836

chain 1 G100W Y103S
Kd (fluorescein): ≥ 10 µM | yeast surface expression [1]: 0.463

chain 1 M105E D106Y
Kd (fluorescein): ≥ 10 µM | yeast surface expression [1]: 0.534

chain 1 F29R V37S
Kd (fluorescein): ≥ 10 µM | yeast surface expression [1]: 0.385

chain 1 Y102M W108K
Kd (fluorescein): ≥ 10 µM | yeast surface expression [1]: 0.392

chain 1 M105Q G109H
Kd (fluorescein): ≥ 10 µM | yeast surface expression [1]: 0.299

chain 1 T28V Y32R
Kd (fluorescein): 0.0245 µM | yeast surface expression [1]: 0.717

chain 1 D31I W36E
Kd (fluorescein): ≥ 10 µM | yeast surface expression [1]: 0.663

chain 1 G100E M105D
Kd (fluorescein): ≥ 10 µM | yeast surface expression [1]: 0.296

chain 1 T28K N35M V37L
Kd (fluorescein): ≥ 10 µM | yeast surface expression [1]: 0.642

chain 1 D31G N35H
Kd (fluorescein): ≥ 10 µM | yeast surface expression [1]: 0.64

chain 1 S101N G109D
Kd (fluorescein): ≥ 10 µM | yeast surface expression [1]: 0.316

chain 1 Y103E
Kd (fluorescein): 0.0166 µM | yeast surface expression [1]: 0.857
